# Experimental data as given in patent publication US20230129651A1, “HAIRPIN STRUCTURE NUCLEIC ACID MOLECULES CAPABLE OF MODULATING TARGET GENE EXPRESSION AND USES THEREOF” (KOREA ADVANCED INSTITUTE OF SCIENCE AND TECHNOLOGY, priority 2021, published 2023).
# {Cy5.5} = Cy5.5 fluorophore label
# B1: Cy5.5_PKR-155_155: linear miRNA trigger binding miR-155 and targeting PKR, labeled with Cy5.5 fluorophore; SEQ ID NO 69 (nucleic acid)
# chain: UUAUGUUUCAGGUUCAGGGGGAUUAUGUUUCCAGGUUCAGGGGGAUAUGUGAGGCAGAGAACGA
# modifications: all 2'-O-methyl, 5' {Cy5.5}, backbone not given here
# Tests used:
# miR-155 = miR-155 expression in FLT3-ITD mutated AML cell line after treatment with AML therapeutic agents; format: cell-based; settings: NOLM-14; IC50 dose, 37° C., 72 hours
# Experimental: The FLT3-ITD mutated AML cell line (NOLM-14) was treated with an IC50 dose of cytarabine, azacitidine, decitabine, venetoclax, or gilteritinib, which is used as standard therapeutic agents for AML, at 37° C. for 72 hours, followed by measuring expression levels of miR-155.
# [1] = test system: FLT3 mutated AML cell line MV4-11; test: Cell viability of MV4-11 after transfection; format: cell-based
# Experimental: The miRNA triggers were assayed for cytotoxicity and apoptosis induction, using the CCK-8 (Cell Counting Kit-8) (Dojindo, Kumamoto, Japan) according to the manufacturer's instruction. Cells were incubated in 96-well plates (5×10^3 cells/well) at 37° C. for 24 hours under a 5% CO2 atmosphere, followed by transfection. Three days after transfection, the medium was removed. A 10-fold dilution of CCK-8 solution in DMEM was added to the cells which were then incubated at 37° C. for 2 hours. After incubation, absorbance was read at 450 nm on Tecan Infinite M200 pro microplate reader (Mnnedorf, Switzerland).
# A linear miRNA trigger (Mcl-1_155_155 or Bcl-2_155_155) which could bind to miR-155 and target mcl-1 or bcl-2 gene was prepared and transfected into the FLT3 mutated AML cell line MV4-11 which was then measured for cell viability. The results are depicted in FIGS. 31a and 31b. Sequences are listed in Tables 19 and 21 for the linear miRNA triggers prepared above, and in Tables 18 and 19 for the controls Luc-Luc-Luc and luc-155-155, respectively. Every nucleotide of the triggers and the controls were chemically modified with 2′-OMe.
# cleaved PARP = test: Western blotting of apoptotic marker in HL-60 after siRNA knockdown; format: cell-based; settings: HL-60 cells
# Experimental: miRNA triggers were transfected into cells in the same manner as in Reference Example 4. After 72 hours, the cells were collected using a cell scraper and lysed with a RIPA buffer (NaCl 150 mM, EDTA 5 mM, Tris 50 mM, NP-40 1.0%, sodium deoxycholate 0.5%, SDS 0.1%). The cell lysate was sonicated 15 times, each for 20 sec, with a halt for 30 sec every sonication. Following centrifugation at 5,000 g for 5 min, the supernatant was taken and used to extract proteins therefrom. A total of 30-40 μg of protein sample was separated in 10-15% SDS-PAGE gel and transferred onto a PVDF membrane through a semi-dry blotting system. The membrane was blocked for 1 hour in 5% skimmed milk and incubated for 2 hours with a 1,000-fold dilution of a primary antibody in, 1% skimmed milk. […] The membrane incubated with the secondary antibody was washed three times with 1×PBST for 10 min each wash, and then reacted with Clarity Western ECL Substrate (#1705061, Bio-Rad), after which images were obtained and analyzed using ChemiDoc (Bio-rad, Hercules, USA). […]
# [2] = In vivo imaging after tail vein injection of Cy5.5-labeled miRNA trigger; parameters: species or system C57BL/6 (B6) mice
# Experimental: As a negative control, PBS was injected at a dose of 200 μl into mice.
# Days 1, 2, and 4 after miRNA trigger injection, in vivo imaging was performed using IVIS 100 (PerkinElmer).
# [3] = test system: MOLM-14, MV4-11 and Hela cells; test: Fluorescence detection after transfection of Cy5.5-labeled miRNA trigger into cells (IVIS 100); format: cell-based; settings: Lipofectamine
# Experimental: With the aid of Lipofectamine, the linear miRNA trigger (5′-Cy5.5-miR-155-miR-155-PKR-3′) was transfected into the FLT3-ITD mutant AML cell lines MOLM-14 and MV4-11 and the solid cancer cell line Hela. […] Subsequent animal tests were performed with the trigger.
# [4] = FACS detection of Cy5.5 in hematopoietic origin cells of injected mice; format: in vivo, C57BL/6 (B6) mice
# Excerpt: Day 4 after miRNA trigger injection in Example 6-2, mice in the miRNA trigger-administered test group (N=4) and the PBS-administered control (N=4) were sacrificed and specimens (blood cells) were taken from peripheral blood vessels, the spleen, and the bone marrow (femur blood cells). Erythrocytes were removed using an RBC lysis buffer.
# The cells in peripheral blood sample were gated through three steps (step 1: debris removal, step 2: selection of single blood cell population, step 3: Cy5.5 detection) to select single blood cells of quality. Through FACS, blood cells retaining Cy5.5 were identified. The results are depicted in FIGS. 20a to 20c.
# Spleen-derived hematopoietic cells and bone marrow hematopoietic cells of mice were gated in the foregoing manner and Cy5.5 was detected. The results are depicted in FIGS. 21 and 22. As shown in FIGS. 21a to 21c, 8.7-13.7% of total spleen-derived hematopoietic cells expressed Cy5.5. As in peripheral blood cells, Cy5.5 was detected mainly in lymphocytes and monocytes of the spleen-derived hematopoietic cells.
molecule,measurement,setting,value
Nc1ccn([C@@H]2O[C@H](CO)[C@@H](O)[C@@H]2O)c(=O)n1 [cytarabine],miR-155 expression,miR-155,did not repress miR-155 express
"Mcl-1_155_155: linear miRNA trigger binding miR-155 and targeting mcl-1; SEQ ID NO 105 (UUAUGUUUCAGGUUCAGGGGGAUUAUGUUUCAGGUUCAGGGGGACCGAACUACGUAGC; all 2'-O-methyl, backbone not given here)",apoptosis (cell viability),[1],induce MV4-11 to undergo apoptosis
"siBcl-2: siRNA targeting bcl-2; SEQ ID NO 62 (AUCAAUCUUCAGCACUCUC; listed as RNA, chemistry not given here)",expression of apoptotic marker cleaved PARP,cleaved PARP,upregulated
B1,time Cy5.5 fluorescence detected in the mouse body,[2],≥ 4 days
same,toxicity over the period of in vivo imaging,[2],particular toxicity was detected from none of the mice
same,organs in which Cy5.5 was detected,"[2]; Invivofectamine, 120 nM, days 1, 2 and 4","detected in main organs including the liver, the spleen, the bone marrow, and the heart, and the hematopoietic organ"
same,fluorescence in transfected cells,[3],Fluorescence was detected
same,rate of bone marrow cells expressing Cy5.5,"[4]; bone marrow, day 4",1.0-2.0%
same,Cy5.5 detected in gated lymphocytes,"[4]; bone marrow, lymphocytes gated through 4 steps, day 4",5.4-9.6%
same,Cy5.5 detection in blood cells (FACS profile),[4]; day 4 after injection,"detected in blood cells, especially lymphocytes and monocytes"
same,rate of Cy5.5 detection based on total number of single blood cells,"[4]; peripheral blood, day 4",6.2-15.9%
same,spleen-derived hematopoietic cells expressing Cy5.5,"[4]; spleen, day 4",8.7-13.7%
